Test results as given in article PMC4931181.
“And” between values parts separate entries of the source, which are not always exact repeats. Equal entries are not always repeated. Where two headings read alike, the source gives them in different places.

How the values were obtained:
[1] = molecular target: yNap1_IF1 (G225D, S237D, T244D, D246R) (Saccharomyces cerevisiae) (UniProt P25293); experiment: native MS
[2] = molecular target: yNap1_IF1 (G225D, S237D, T244D, D246R) (Saccharomyces cerevisiae) (UniProt P25293); experiment: native MS; remark: listed apart in the source
[3] = test system: H2A-H2B heterodimer;yNap1 (Xenopus laevis;Saccharomyces cerevisiae); experiment: EMSA
[4] = test system: H2A-H2B heterodimer (Xenopus laevis); experiment: EMSA

Row | stoichiometry N [1] | stoichiometry N [2] | Substance | Kd [3] [nM] | Kd [4] [nM]
1 | 2 and 4 | 2 | yNap1_IF1 (G225D, S237D, T244D, D246R) (from UniProt P25293 1-417) (natural protein) | – | –
2 | – | – | (H3-H4)2-DNA tetrasome on 147-bp 601 DNA | 940 | 29
